The text below walks through data of patent publication CN114790240A (UNIV ZHENGZHOU; UNIV HENAN AGRICULTURAL, dated 2022).

For experiment [1], the target named is 重组RBD蛋白 (SARS-CoV-2 RBD蛋白) (SARS-CoV-2, UniProt P0DTC2 331-524).
For another experiment, the target named is SARS-CoV-2野生株假病毒 (刺突蛋白) (SARS-CoV-2, UniProt P0DTC2 14-1273). Nature of the experiment: cell-based or functional assay.

B1: 单克隆抗体9D4 (antibody, V domains shown)
VH: QVHLQQSGPELVKPGASVKISCKSSGYALTDYYINWVKQRPGQGLEWIGWIFPGNDYTYFNEKFKDKATLTLDKSSRTAYMLLSSLTTEDSAVYFCARYGDGNYVYFDYWGQGTSLTVSS
VL: ETVLIQSPALMAASPGEKVTITCSVSSSISSSNLHWYQQKSGNSPKPWIYGTSNLASGVPVRFSGSGSGTSYSLTISSMEAEDAATYYCQQWSSYPLTFGAGTKLELK
In experiment [1], B1 came in with an EC50 of 0.0242 µg/mL. In the experiment with SARS-CoV-2野生株假病毒 (刺突蛋白), this molecule came in with a 假病毒中和活性IC50 of 112 ng/mL.

B2: 单克隆抗体8H9 (antibody, V domains shown)
VH: QIQLVQSGPELKKPGETVKISCKASGYTFTTYGMSWVKQTPGKGLKWMGWINTYSGVPTYADDFKGRFAFSLETSASTASLQINNLKNEDTATYFCARYDPTAPDYAMDYWGQGTSVTVSS
VL: NIVMTQSPKSMSMSVGERVTLSCKASENVGTYVSWYQQKPEQSPKLLIYGASNRYTGVPDRFTGSGSATDFTLTISSVQAEDLADYHCGQSYIYPLTFGAGTNLELK
In experiment [1], B2 gave an EC50 of 0.0251 µg/mL. The molecule further showed a 假病毒中和活性IC50 with SARS-CoV-2野生株假病毒 (刺突蛋白) of 33 ng/mL.
